# From FireProtDB (doi:10.1093/protein/9.5.425)
# B1: Tryptophan synthase alpha chain, P0A877 (parent)
# chain: MERYESLFAQLKERKEGAFVPFVTLGDPGIEQSLKIIDTLIEAGADALELGIPFSDPLADGPTIQNATLRAFAAGVTPAQCFEMLALIRQKHPTIPIGLLMYANLVFNKGIDEFYAQCEKVGVDSVLVADVPVEESAPFRQAALRHNVAPIFICPPNADDDLLRQIASYGRGYTYLLSRAGVTGAENRAALPLNHLVAKLKEYNAAPPLQGFGISAPDQVKAAIDAGAAGAISGSAIVKIIEQHINEPEKMLAALKVFVQPMKAATRS
# Variants of: B1
# Settings: Escherichia coli (strain K12), pH 9, Thermal, DSC, Sodium tetraborate 1 mM, reversible: yes, structure 1WQ5, whole UniProt chain shown
Variant,Tm [°C],"change of melting temperature, mutant - wild type (higher = more stable) [°C]",heat capacity change of unfolding [kcal/mol/K],unfolding enthalpy (calorimetric) [kcal/mol],ddG of mutation (higher = less stable) (50 °C) [kcal/mol],heat capacity change of unfolding (50 °C) [kcal/mol/K],unfolding free energy (50 °C) [kcal/mol]
C118V,49.3,-4.2,2.42,73,,,
C118S,45,-8.5,2.3,75.6,,,
C118A,49.2,-4.3,3.3,82.3,,,
C154A,50.6,-2.9,4.11,73,1.03,4.11,0.14
C154V,50.2,-3.3,4.21,71.5,1.12,4.21,0.05
C154S,45.3,-8.2,3.52,46.4,,,
C81G,48.7,-4.8,6.82,104,,,
C81V,49.1,-4.4,4.31,57.4,,,
C81S,49.1,-4.4,5.02,92.8,,,
C81A,51.8,-1.7,4.11,83.5,0.69,4.11,0.48
